Reference: publication PMC2805098

Legend:
[1] = substrate: Nc1nc2c(c(=O)[nH]1)N1CN(c3ccc(C(=O)N[C@@H](CCC(=O)O)C(=O)O)cc3)C[C@H]1CN2; experiment: NADH-CH2-H4folate oxidoreductase assay, steady-state; type: biochemical, Escherichia coli; conditions: other: 1000 μM NADH, fit to eq 6, anaerobic, 25 °C, pH 7.2
[2] = substrate: Nc1nc2c(c(=O)[nH]1)N1CN(c3ccc(C(=O)N[C@@H](CCC(=O)O)C(=O)O)cc3)C[C@H]1CN2; experiment: purified protein, by the assay type; conditions: other: 500 μM NADH, anaerobic, 25 °C, pH 7.2

Row | Protein | Km [1] [µM] | Km [2] [µM]
1 | Phe223Leu MTHFR (Escherichia coli K-12; F223L) (protein) MSFFHASQRDALNQSLAEVQGQINVSFEFFPPRTSEMEQTLWNSIDRLSSLKPKFVSVTYGANSGERDRTHSIIKGIKDRTGLEAAPHLTCIDATPDELRTIARDYWNNGIRHIVALRGDLPPGSGKPEMYASDLVTLLKEVADFDISVAAYPEVHPEAKSAQADLLNLKRKVDAGANRAITQFFFDVESYLRFRDRCVSAGIDVEIIPGILPVSNFKQAKKLADMTNVRIPAWMAQMFDGLDDDAETRKLVGANIAMDMVKILSREGVKDFHFYTLNRAEMSYAICHTLGVRPGL | 8 ± 2 | 
2 | Phe223Ala MTHFR (Escherichia coli K-12; F223A) (protein) MSFFHASQRDALNQSLAEVQGQINVSFEFFPPRTSEMEQTLWNSIDRLSSLKPKFVSVTYGANSGERDRTHSIIKGIKDRTGLEAAPHLTCIDATPDELRTIARDYWNNGIRHIVALRGDLPPGSGKPEMYASDLVTLLKEVADFDISVAAYPEVHPEAKSAQADLLNLKRKVDAGANRAITQFFFDVESYLRFRDRCVSAGIDVEIIPGILPVSNFKQAKKAADMTNVRIPAWMAQMFDGLDDDAETRKLVGANIAMDMVKILSREGVKDFHFYTLNRAEMSYAICHTLGVRPGL |  | 93 ± 16
